The numbers were not newly measured in PMC7930624, which cites them from elsewhere.

“And” between values parts separate entries of the source, which are not always exact repeats. Equal entries are not always repeated.

In this series the target is ACE2 (Homo sapiens) (UniProt Q9BYF1).
Sequence of ACE2 (Homo sapiens) (Q9BYF1 18-740): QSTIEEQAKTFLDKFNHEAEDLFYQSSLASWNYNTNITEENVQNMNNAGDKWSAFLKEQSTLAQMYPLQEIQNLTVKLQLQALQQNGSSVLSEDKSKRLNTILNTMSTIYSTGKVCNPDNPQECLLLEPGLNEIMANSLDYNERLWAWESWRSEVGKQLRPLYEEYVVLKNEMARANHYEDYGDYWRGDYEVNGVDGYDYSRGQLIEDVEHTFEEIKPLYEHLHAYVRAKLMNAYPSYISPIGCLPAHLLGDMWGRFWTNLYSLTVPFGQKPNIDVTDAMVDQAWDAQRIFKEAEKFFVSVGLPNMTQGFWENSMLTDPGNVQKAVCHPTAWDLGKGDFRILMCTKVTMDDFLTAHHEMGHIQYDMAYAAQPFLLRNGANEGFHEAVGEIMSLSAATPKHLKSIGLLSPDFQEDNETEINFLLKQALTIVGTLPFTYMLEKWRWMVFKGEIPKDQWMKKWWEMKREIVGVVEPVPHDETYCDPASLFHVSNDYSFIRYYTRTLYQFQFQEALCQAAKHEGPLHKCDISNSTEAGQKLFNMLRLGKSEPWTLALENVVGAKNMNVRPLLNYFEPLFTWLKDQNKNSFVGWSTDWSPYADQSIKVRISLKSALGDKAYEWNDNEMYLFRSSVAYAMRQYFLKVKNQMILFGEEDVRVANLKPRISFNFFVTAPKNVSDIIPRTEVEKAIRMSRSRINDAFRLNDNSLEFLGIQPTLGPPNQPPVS

Sequence of Human defensin-5 (Q01523 63-94): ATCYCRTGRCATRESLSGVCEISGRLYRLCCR

For Human defensin-5 (from UniProt Q01523), the Kd (usually a measure of binding affinity in units of concentration) was 0.0393 µM and 0.0762 µM.
